Experimental findings from patent US20040192610A1 are described below.

The experiment deals with rat neuronal nicotinic acetylcholine receptor, α7 subtype (rat) (UniProt Q05941). Description: cell-based or functional assay.
UniProt Q05941, sequence (Q05941 23-502): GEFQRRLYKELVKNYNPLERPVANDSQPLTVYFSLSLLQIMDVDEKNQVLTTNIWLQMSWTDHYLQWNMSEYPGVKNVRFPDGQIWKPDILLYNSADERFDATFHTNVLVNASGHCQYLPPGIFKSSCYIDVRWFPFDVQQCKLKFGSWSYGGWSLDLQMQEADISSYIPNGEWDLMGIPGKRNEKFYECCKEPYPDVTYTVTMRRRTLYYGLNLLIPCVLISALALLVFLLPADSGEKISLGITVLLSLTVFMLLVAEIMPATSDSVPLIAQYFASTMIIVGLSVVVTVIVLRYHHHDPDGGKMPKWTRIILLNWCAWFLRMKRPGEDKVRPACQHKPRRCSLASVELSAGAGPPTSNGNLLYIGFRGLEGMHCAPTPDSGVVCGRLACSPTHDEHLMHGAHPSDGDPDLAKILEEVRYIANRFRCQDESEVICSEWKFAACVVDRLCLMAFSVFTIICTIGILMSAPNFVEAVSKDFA

α-conotoxin peptide PnIA came in with an IC50 of antagonistic activity (oocyte electrophysiology) of 229 nmol.
